Assay results taken from patent publication US20180030151A1 (MOGAM INSTITUTE FOR BIOMEDICAL RESEARCH, published 2018).
Where a chain is given by its changes, count along the chain named. Like-named read-outs stand apart in the source and are kept apart here. Blank lines part the entries; values can stand above or below the binder they belong to.

Assays:
Test in all cases: cell-based or functional assay
[1] = biological target: T1, recombinant human TFPI (tissue factor pathway inhibitor) (human, UniProt P10646 29-304)
[2] = biological target: T1, recombinant human TFPI (tissue factor …); remark: listed apart in the source
[3] = biological target: T1, recombinant human TFPI (tissue factor …); remark: listed apart in the source
[4] = biological target: T1, recombinant human TFPI (tissue factor …); remark: listed apart in the source
[5] = biological target: T1, recombinant human TFPI (tissue factor …); remark: listed apart in the source

FXa assay % of FXa alone, 2.5 nM Ab, 10 nM TFPI [2]: 4.7%
FXa assay % of FXa alone, 5 nM Ab, 10 nM TFPI [2]: 6.1%
FXa assay % of FXa alone, 10 nM Ab, 10 nM TFPI [2]: 7.1%
FXa assay % of FXa alone, 20 nM Ab, 10 nM TFPI [2]: 38.6%
FXa assay OD, 2.5 nM Ab, 10 nM TFPI [2]: 0.038
FXa assay OD, 20 nM Ab, 10 nM TFPI [2]: 0.314
B2: clone 4206 (antibody, V domains shown)
VH: EVQLVESGGGLVKPGGSLRLSCAASGFTFSSYAMNWVRQAPGKGLEWVSTITTGGSHTYYADSVEGRFTISRDNAKNSLYLQMDSLRAEDTAVYYCARQDGNFLMDYWGQGTLVTVSS
VL: DVVMTQTPLSLPVTLGQPASISCKSSQSLLDVDGKTYLNWLQQRPGQSPKRLIYLVSKLDSGVPDRFTGSGSGTDFTLKISRVEAEDVGVYYCWQGTHLPFTFGQGTKVEIKR

FXa assay % of FXa alone, 2.5 nM Ab, 10 nM TFPI [2]: 5%
FXa assay % of FXa alone, 5 nM Ab, 10 nM TFPI [2]: 6.1%
FXa assay % of FXa alone, 10 nM Ab, 10 nM TFPI [2]: 12.2%
FXa assay % of FXa alone, 20 nM Ab, 10 nM TFPI [2]: 53.1%
FXa assay OD, 2.5 nM Ab, 10 nM TFPI [2]: 0.041
FXa assay OD, 10 nM Ab, 10 nM TFPI [2]: 0.099
FXa assay OD, 20 nM Ab, 10 nM TFPI [2]: 0.431
B7: clone 4208 (antibody, V domains shown)
VH: B2 VH with P14S, N35S, S49G, H57Y, E65Q, D84N
VL: B2 VL with V32T, L99F

FXa assay % of FXa alone, 2.5 nM Ab, 10 nM TFPI [4]: 3.4%
FXa assay % of FXa alone, 5 nM Ab, 10 nM TFPI [4]: 3.5%
FXa assay % of FXa alone, 10 nM Ab, 10 nM TFPI [4]: 3.3%
FXa assay % of FXa alone, 20 nM Ab, 10 nM TFPI [4]: 2.5%
B9: clone 4287 (antibody, V domains shown)
VH: EVQLVESGGGLVKPGGSLRLSCAASGFTFSKYAMNWFRQAPGKGLEWVSTITTGGSYTYYADSVEGRFTISRDNAKNSLYLQMNSLRAEDTAVYYCARQHPYGNFLMDYWGQGTLVTVSS
VL: B2 VL with V32I, L99F

Second part, the binder before the results:

B1: clone 1 (antibody, V domains shown)
VH: B2 VH with S49G, H57Y, E65D, D84N
VL: B2 VL with Q27P, V32S, L99F
FXa assay % of FXa alone, 2.5 nM Ab, 10 nM TFPI [1]: 6.3%
FXa assay % of FXa alone, 5 nM Ab, 10 nM TFPI [1]: 17.1%
FXa assay % of FXa alone, 10 nM Ab, 10 nM TFPI [1]: 50.1%
FXa assay % of FXa alone, 20 nM Ab, 10 nM TFPI [1]: 72%
FXa assay OD, 2.5 nM Ab, 10 nM TFPI [1]: 0.048
FXa assay OD, 5 nM Ab, 10 nM TFPI [1]: 0.131
FXa assay OD, 10 nM Ab, 10 nM TFPI [1]: 0.381
FXa assay OD, 20 nM Ab, 10 nM TFPI [1]: 0.548

B3: clone 7 (antibody, V domains shown)
VH: B2 VH with S49G, H57Y, E65D, D84N
VL: B2 VL with Q27P, L99F
FXa assay % of FXa alone, 2.5 nM Ab, 10 nM TFPI [1]: 8.9%
FXa assay % of FXa alone, 5 nM Ab, 10 nM TFPI [1]: 31%
FXa assay % of FXa alone, 10 nM Ab, 10 nM TFPI [1]: 72.1%
FXa assay % of FXa alone, 20 nM Ab, 10 nM TFPI [1]: 75.4%
FXa assay OD, 2.5 nM Ab, 10 nM TFPI [1]: 0.0675
FXa assay OD, 5 nM Ab, 10 nM TFPI [1]: 0.236
FXa assay OD, 10 nM Ab, 10 nM TFPI [1]: 0.549
FXa assay OD, 20 nM Ab, 10 nM TFPI [1]: 0.574

B4: clone 3007 (antibody, V domains shown)
VH: B2 VH with S30T, T53L, H57Y, E65Q, D84N
VL: B2 VL with V32L, L99F
FXa assay % of FXa alone, 2.5 nM Ab, 10 nM TFPI [3]: 3.5%
FXa assay % of FXa alone, 5 nM Ab, 10 nM TFPI [3]: 3.6%
FXa assay % of FXa alone, 10 nM Ab, 10 nM TFPI [3]: 3.6%
FXa assay % of FXa alone, 20 nM Ab, 10 nM TFPI [3]: 3%

B5: clone 1234 (antibody, V domains shown)
VH: B2 VH with H57Y, E65Q, D84N
VL: B2 VL with V32I, K79E, L99F
FXa assay % of FXa alone, 2.5 nM Ab, 10 nM TFPI [4]: 3.8%
FXa assay % of FXa alone, 5 nM Ab, 10 nM TFPI [4]: 3.6%
FXa assay % of FXa alone, 10 nM Ab, 10 nM TFPI [4]: 4.5%
FXa assay % of FXa alone, 20 nM Ab, 10 nM TFPI [4]: 4%

B6: clone 3016 (antibody, V domains shown)
VH: B2 VH with D84N
VL: B2 VL with V32S
FXa assay % of FXa alone, 2.5 nM Ab, 10 nM TFPI [3]: 3.7%
FXa assay % of FXa alone, 5 nM Ab, 10 nM TFPI [3]: 4.8%
FXa assay % of FXa alone, 10 nM Ab, 10 nM TFPI [3]: 6.3%
FXa assay % of FXa alone, 20 nM Ab, 10 nM TFPI [3]: 14.2%
FXa assay OD, 20 nM Ab, 10 nM TFPI [3]: 0.102

B8: clone 3115 (antibody, V domains shown)
VH: B2 VH with S49G, E65D, D84N
VL: B2 VL with L99F
FXa assay % of FXa alone, 2.5 nM Ab, 10 nM TFPI [5]: 6.2%
FXa assay % of FXa alone, 5 nM Ab, 10 nM TFPI [5]: 8.1%
FXa assay % of FXa alone, 10 nM Ab, 10 nM TFPI [5]: 16.2%
FXa assay % of FXa alone, 20 nM Ab, 10 nM TFPI [5]: 69.1%
FXa assay OD, 10 nM Ab, 10 nM TFPI [5]: 0.125
FXa assay OD, 20 nM Ab, 10 nM TFPI [5]: 0.532

B10: clone 3120 (antibody, V domains shown)
VH: B2 VH with H57Y, D84N, N102Y
VL: B2 VL with V32I, L99F
FXa assay % of FXa alone, 2.5 nM Ab, 10 nM TFPI [5]: 6.4%
FXa assay % of FXa alone, 5 nM Ab, 10 nM TFPI [5]: 9.1%
FXa assay % of FXa alone, 10 nM Ab, 10 nM TFPI [5]: 33.4%
FXa assay % of FXa alone, 20 nM Ab, 10 nM TFPI [5]: 81.3%
FXa assay OD, 2.5 nM Ab, 10 nM TFPI [5]: 0.0495
FXa assay OD, 5 nM Ab, 10 nM TFPI [5]: 0.07
FXa assay OD, 10 nM Ab, 10 nM TFPI [5]: 0.258
FXa assay OD, 20 nM Ab, 10 nM TFPI [5]: 0.626
